Earlier results on eight compounds are cited in patent US20150174267A1, “COMPOSITIONS AND METHODS FOR THE TRANSPORT OF THERAPEUTIC AGENTS” (Angiochem Inc., priority 2009, published 2015).

Where no end group is shown, it is not given here.

The conditions of series [1]: for efficient transport across the BBB: efficiently = at least as efficiently as Angiopep-6.
Series [2] deals with liver, lung, kidney, spleen, and muscle cells.

In the case of `COc1cc([C@@H]2c3cc4c(cc3[C@@H](O[C@@H]3O[C@@H]5CO[C@@H](C)O[C@H]5[C@H](O)[C@H]3O)[C@H]3COC(=O)[C@H]23)OCO4)cc(OC)c1OP(=O)(O)O` [Etoposide phosphate, etoposide phosphate], the “water solubility compared to etoposide” value is listed as “improved water solubility”.

For “Angiopep-1: targeting polypeptide of Table 1, SEQ ID NO:67 (TFFYGGCRGKRNNFKTEEY; not fully specified (C-terminus))”, in series [1], the “efficient transport across the BBB” value was “cross the mammalian BBB efficiently”.

Turning to “Angiopep-2: targeting polypeptide of Table 1, SEQ ID NO:97”, the “efficient transport across the BBB” value in series [1] is “cross the mammalian BBB efficiently”.

On to “Angiopep-4a: targeting polypeptide of Table 1, SEQ ID NO:108 (RFFYGGSRGKRNNFKTEEY)”, for which the “efficient transport across the BBB” value in series [1] is on record as “cross the mammalian BBB efficiently”.

On to “Angiopep-4b: targeting polypeptide of Table 1, SEQ ID NO:109 (RFFYGGSRGKRNNFKTEEY; not fully specified (N-terminus))”, for which the “efficient transport across the BBB” value in series [1] is recorded as “cross the mammalian BBB efficiently”.

In the case of “Angiopep-5: targeting polypeptide of Table 1, SEQ ID NO:110 (RFFYGGSRGKRNNFRTEEY; not fully specified (N-terminus))”, the “efficient transport across the BBB” value in series [1] was “cross the mammalian BBB efficiently”.

On to “Angiopep-6: targeting polypeptide of Table 1, SEQ ID NO:111 (TFFYGGSRGKRNNFRTEEY)”, for which the “efficient transport across the BBB” value in series [1] is “cross the mammalian BBB efficiently”. For the same compound, in series [1] (relative to Angiopep-1 (250 nM), in situ brain perfusion assay of US 2009/0016959), the “transport across the BBB relative to that of Angiopep-1” value was 38.5%.

With “Angiopep-7: targeting polypeptide of Table 1, SEQ ID NO:112 (TFFYGGSRGRRNNFRTEEY)”, the “efficient transport across the BBB” value in series [1] is given as “does not cross the BBB efficiently”. Moreover, the “efficient transport into particular cell types” value in series [2] is “efficiently transported into liver, lung, kidney, spleen, and muscle cells”.
